Reference: patent US20170081400A1 (CEPHALON, published 2017)
Changes are numbered by the printed parent chain. One block for each binder: values may come before it.

How the values were obtained:
[1] = biological target: T1, human TL1A extracellular domain with N-terminal HIS and FLAG tag (human, UniProt O95150 72-251); assay: SPR Run 7, antibody on Protein A, TL1A 5 ug/mL, timepoint 44
T1 construct: the whole entry is named; also called TNFSF15
T1 sequence: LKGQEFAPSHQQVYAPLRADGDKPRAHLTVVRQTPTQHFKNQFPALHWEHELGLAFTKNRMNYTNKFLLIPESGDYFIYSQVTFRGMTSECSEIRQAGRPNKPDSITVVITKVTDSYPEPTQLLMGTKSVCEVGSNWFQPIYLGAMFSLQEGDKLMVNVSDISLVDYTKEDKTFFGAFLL
From the text: (§1) 1.5. Antibody expression and antigen binding as determined by SPR. Using a CM5 sensor chip (GE Healthcare) Protein A (Pierce) was coupled to the chip surface using an amine coupling kit (GE Healthcare). Protein A was coupled on flow cell 1 and 2 (or alternatively 3 and 4) using a BIACORE® T200. […] The amount of supernatant or purified protein (as well as the concentration) injected during the capture stage varied between runs and is specified in the header of the Tables 3-11. At the end of injection of the supernatant or purified antibody the change in response units was measured. This value was reported as Capture Level in Tables 3-11. […] The response units were measured prior to the end of the dissociation phase. […] The sensorgrams were double referenced (flow cell 2 is subtracted from flow cell 1 and a buffer blank). As there were a large number of antibody variants to screen, these were screened across different runs (Tables 3-11). […] A summary of the conditions used in each run is below:
(§2) 2.1. […] In some experiment the antibodies were purified using Protein A chromatography (See 1.4) and purified antibodies were used in BIACORE® (GE Healthcare) experiments.

[2] = biological target: T1, human TL1A extracellular domain with …; assay: SPR Run 7, antibody on Protein A, TL1A 5 ug/mL, timepoint 220
From the text: as §1, §2

- TL1A Binding Level (Early) [1]: 120 RU
- TL1A Binding Level (Late) [2]: 110 RU
B1: 320-566 (antibody, human IgG1, name in Kabat numbering, V domains shown)
VH: QVQLVQSGAEVKKPGASVKVSCKASGYTFTSYDINWVRQAPGQGLEWMGWLNPNSGNTGAAQKFQGRVTMTADRSTSTAYMELSSLRSEDTAVYYCAREVPETAAFEYWGQGTLVTVSS
VL: QSVLTQPPSVSGAPGQRVTISCTSSSSDIGAGLGVHWYQQLPGTAPKLLIEGYYNRPSGVPDRFSGSKSGTSASLTITGLLPEDEGDYYCQSYDGTLSALFGGGTKLTVLG
notes: full-length human IgG1, lambda

- TL1A Binding Level (Early) [1]: 46 RU
- TL1A Binding Level (Late) [2]: 41 RU
B2: 320-579 (antibody, human IgG1, name in Kabat numbering, V domains shown)
VH: B1 VH with N52L, A60Y
VL: B1 VL
notes: as for B1

- TL1A Binding Level (Early) [1]: 98 RU
- TL1A Binding Level (Late) [2]: 90 RU
B3: 320-577 (antibody, human IgG1, name in Kabat numbering, V domains shown)
VH: B1 VH with L51A, A60Y
VL: B1 VL
notes: as for B1

- TL1A Binding Level (Early) [1]: 67 RU
- TL1A Binding Level (Late) [2]: 62 RU
B4: 320-573 (antibody, human IgG1, name in Kabat numbering, V domains shown)
VH: B1 VH with A60Y, A61Q
VL: B1 VL
notes: as for B1

- TL1A Binding Level (Early) [1]: 140 RU
- TL1A Binding Level (Late) [2]: 130 RU
B5: 320-574 (antibody, human IgG1, name in Kabat numbering, V domains shown)
VH: B1 VH with A60Y, A61D
VL: B1 VL
notes: as for B1

- TL1A Binding Level (Early) [1]: 78 RU
- TL1A Binding Level (Late) [2]: 72 RU
B6: 320-571 (antibody, human IgG1, name in Kabat numbering, V domains shown)
VH: B1 VH with A60K
VL: B1 VL
notes: as for B1

- TL1A Binding Level (Early) [1]: 96 RU
- TL1A Binding Level (Late) [2]: 86 RU
B7: 320-567 (antibody, human IgG1, name in Kabat numbering, V domains shown)
VH: B1 VH with A60S
VL: B1 VL
notes: as for B1

- TL1A Binding Level (Early) [1]: 115 RU
- TL1A Binding Level (Late) [2]: 107 RU
B8: 320-568 (antibody, human IgG1, name in Kabat numbering, V domains shown)
VH: B1 VH with A60Q
VL: B1 VL
notes: as for B1

- TL1A Binding Level (Early) [1]: 98 RU
- TL1A Binding Level (Late) [2]: 90 RU
B9: 320-572 (antibody, human IgG1, name in Kabat numbering, V domains shown)
VH: B1 VH with A60Y, A61S
VL: B1 VL
notes: as for B1

- TL1A Binding Level (Early) [1]: 121 RU
- TL1A Binding Level (Late) [2]: 110 RU
B10: 320-575 (antibody, human IgG1, name in Kabat numbering, V domains shown)
VH: B1 VH with A60Y, A61H
VL: B1 VL
notes: as for B1

- TL1A Binding Level (Early) [1]: 79 RU
- TL1A Binding Level (Late) [2]: 73 RU
B11: 320-569 (antibody, human IgG1, name in Kabat numbering, V domains shown)
VH: B1 VH with A60D
VL: B1 VL
notes: as for B1

- TL1A Binding Level (Early) [1]: 83 RU
- TL1A Binding Level (Late) [2]: 77 RU
B12: 320-578 (antibody, human IgG1, name in Kabat numbering, V domains shown)
VH: B1 VH with L51Y, A60Y
VL: B1 VL
notes: as for B1

- TL1A Binding Level (Early) [1]: 79 RU
- TL1A Binding Level (Late) [2]: 72 RU
B13: 320-570 (antibody, human IgG1, name in Kabat numbering, V domains shown)
VH: B1 VH with A60H
VL: B1 VL
notes: as for B1

- TL1A Binding Level (Early) [1]: 90 RU
- TL1A Binding Level (Late) [2]: 83 RU
B14: 320-576 (antibody, human IgG1, name in Kabat numbering, V domains shown)
VH: B1 VH with A60Y, A61K
VL: B1 VL
notes: as for B1

- TL1A Binding Level (Early) [1]: 51 RU
- TL1A Binding Level (Late) [2]: 47 RU
B15: 320-580 (antibody, human IgG1, name in Kabat numbering, V domains shown)
VH: B1 VH with G56Y, A60Y
VL: B1 VL
notes: as for B1
